Experiment: label from the status in PepcDB records

Row | Sequence | protein production
1 | MPEPHAVLYVTNELSHIVKNEFLPIWKLTGDESLNDLWLENGKYATDVYAYGDVSKWTIRQLRGHGFIFISTHKNVQLADIIKTVDVRVPREVARSHDMKAFENEIGRRRIRMRKGFGDALRNYAFKMAIEFHGSEAETLNDANPRLHKIYGMPEIPPLYMEYAEIGTRFDDEPTDEKLVSMLHYIVYSAEEVHYIGCGDLRTLMQFKKRSPGRFRRVLWHVYDPIAPECSDPNVIVHNIMVDSKKDILKHMNFLKRVERPFIWDVSSDRSQMNDHEWETTRFAEDRLGEEIAYEMGGAFSSALIKHRIPNSKDEYHCISTYLFPQPGADADMYELRNFMRLRGYSHVDRHMHPDASVTKVVSRDVRKMVELYHGRDCGSFLKKRLFEHLHIVRKNGLLHESDEPRADLFYLTNRCNMGLEPSIYEVMKKSVIATAWVGRAPLYDYDDFALPRSTVMLNGSYRDIRILDGNGAILFLMWRYPDIVKKDLTYDPAWAMNFAVSLKEPIPDPPVPDISLCRFIGLRVESSVLRVRNPTLHETADELKRMGLDLSGHLYVTLMSGAYVTDLFWWFKMILDWSAQNREQKLRDLKRSAAEVIEWKEQMAERPWHVRNDLIAALREYKRKMGMREGASIDSWLELLRHL | not failed
2 | MTMYADLVLHGGSIATLDDKLEQAQAVAIAAGRIIAVGSDAHCLALAGPGTRRIGLGGACVMPGINDSHCHPDGQAVKAGRWDDVSQVATQQALLARIADFHRRMPAGAWYLGFRFDDTHSGGYPARQALEQAAPGRPVFLLRRDAQVGLASAPALAALLASGLATQVPPHCLDAATGLARGRGVFAFTTHIAAADSLDDYLEGFPTLFAEMGRMGITSVHNALTSALAVQAYRALHGAGRLPVRVGMMLNGRDQRLVDETLAAGLRFGAGDDRLYLLGVEYGSDGSTSGRTAAYYQPYVGEEGGDGRPANRGDVNFSAEDLAAKVGRVMAAGLQAAATGNGDRGIDFALDAFEQGLRAHPGAVPPRIEHCCCAPPAIQQRMAALGVIDSSAAGFAYNLGDAYLRNRPSAEMAWMWPHRDMLDRGVLVCAHSDAPVCERNPFLGMWSMVTRKTASGASLGAGQAITPLEAMRCYTANPARAEGQAARKGTLSPGKLADLIVLDRDPCAVDPDEIRHTQVLATLVGGQATYRAAGAPSWADELPMRE | failed
3 | MNFAGKHVGFGLTGSHCTYHEVLPQMERLVELGAKVTPFVTHTVQTTDTKFGESSEWINKIKQITEEPIVDSMVKAEPFGPKTPLDCMVIAPMTGNSTSKFANAMTDSPVLMGAKATLRNGKPVVVGISTNDALGLNGINIMRLMATKNIYFIPFGQDNPQVKPNSLVARMEALPETIEAALRGQQYQPVLIEKFRD | not failed
4 | MPESYWEKVSGKNIPSSLDLYPIIHNYLQEDDEILDIGCGSGKISLELASKGYSVTGIDINSEAIRLAETAARSPGLNQKTGGKAEFKVENASSLSFHDSSFDFAVMQAFLTSVPDPKERSRIIKEVFRVLKPGAYLYLVEFGQNWHLKLYRKRYLHDFPITKEEGSFLARDPETGETEFIAHHFTEKELVFLLTDCRFEIDYFRVKELETRTGNKILGFVIIAQKLLEHHHHHH | not failed
5 | MEFVLASASPARRRLLQGIGINPIVHVSHFDESQIHHDDPAQLVEALAAAKAKTVAQHRQDALILGCDSVLHVRGEILGKPASPTEAIARWQTMRGHYGLLYTGHALVDQTQNQLLVRHGVTKVYFAAIDDDTIAAYVRSGEPLQCAGCFALEGKGGLFIEKIEGCHSNVIGLSLPLLREMLAHLGYTVQTLWP | failed
6 | MRWVKAGELPMEAAYGATVSLPDRLIFIGGSNSSDRFSSVLSFSFDCMKDSGLICETLPPLPHAVDNMSATLLGDTLYVLGGNRNGIPSSSMFSLCLDNYSAGWTEVPFPGRPRVQPVCSSLLGKLYVFGGFTSGGDASVSTDGLCYHPESGQWQVVKAPLTTKGEPLTLTGGASVSYGDVLLICAGGVNRDIFEDAISARYQMVRESEYLLQPIEWYRFNDQLLAYNVRSGEWIRIGVPSPMLARAGSSLVVFGDILFYIGGELKPGVLEHHHHHH | failed
7 | VVAPITTGYTVKISNYGWDQSDKFVKIYITLTGVHQVPTENVQVHFTERSFDLLVKNLNGKSYSMIVNNLLKPISVEGSSKKVKTDTVLILCRKKVENTRWDYLTQVEKECKEK | not failed
8 | MNKQLRNNMIVLLFAVILSLILNVAHILLPFMFGPIIASVICVRVFRLEIEWPFWLSQIGLVLLGVQIGSTFTKNVILDIKDDWLTIILITVMLLALALVIAFFFKKIAKVNTETAILSVIPGALSQMLIMAEENKRANIMVVSLTQTSRIIFVVILVPFISYFFRDNGSNGSLEKATTKVLTDAVSIPQILLLALAVFIVYIIMSKINFPTKQLLAPIIVLISWNLITGVTFTLDNYIIASAQVIYMIRIGLQIAKLLDQMKGRIAVAIAFQNVLLILLAFIMVLLISMVSNHSVNELFLGAAPGGMSQIVLVAIETGADVALISSYHIFRIFFILFLIAPLLGHLLKYIDRSHS | failed
9 | MFNESDAPQPPKVLSTPLEIAANLRQLQESHDPLIITFHDRSHRFQSYVVHVDRESNTLALDEMIPRDGEKFIENGEHFRVEGFHDGVRIAWECDHALKISEVDGHRCYSGPLPQEVTYHQRRNAFRAALKLSQLVDIILDGAHLKGNGAMRGKLLDISATGCKLRFEGNVEDRLQLGQVYERFKAGNPLGLVDTMVELRHLHYEERINTTFAGVRFHNLSGQAQRKIESFVYQLQREARRFDKDDY | not failed
10 | MSVKVSEYMTKKVVTVSKDNTVKDVIKLLKETGHNSFPVVENGKLIGIVSVHDIVGKDDNEKVENVMTKRKDMVVTTPDANIMDVGRIMFRTGFSKLPVVDEENNLVGIISNMDVIRSQIEKTTPKKLENIIKTYKSLGYNLRVEKEEVDVNKLRPTQNKIHADELVGRMYELKKGLAEPIIAIKTKRGDYYILVDGHHRAVAAYKMGVPKLDAYVIYLDTDKKLGIEKTAEIMNLKSLEDVKIVDSDDENSVKVIKYNKNGVLG | failed
11 | MSKGKKIFAIIFGIILVLFLAVVGMGAKLYWDVSKSMDKTYETVERSKKSQVNLNNKEPFSVLLLGIDTGDDGRVEQGRSDTTIVATVNPRDKQTTLVSLARDTYVDIPGQGKQDKLNHAYAFGGASLAMDTVENYLNIPINHYVSINMAGLKELVNAVGGIEVNNNLTFSQDGYDFTIGKISLDGEQALSYSRMRYEDPNGDYGRQERQRKVIEGIVQKVLSLNSVSNYQEILTAVSDNMKTDLSFDDMKKIALDYRSAFGKVKQDQLQGTGFMQDGVSYQRVDEQELTRVQQELKNQLNTK | failed
12 | MHATTLPSGIRAGRHERTPPPMTVQTGQTRQTRSRTWTRVTGTAAVVAAALTATVTPSVAAPAETPPASVTAAAADVGYDTWQRDCRAVMDAALPYLKERIAGSAPGEKQAVVLDIDNTSLETDFGFSYPQPANRPVLEVAEYAQEHGVALFFVTARPGIIEAPTEWNLAHAGYESSGLYVRGFLDLFKDVAEYKTEQRAEIESKGYTIIANIGNSASDLSGGHAEKTFKLPDYDGQLS | failed
13 | MSSLMIKLNLNYKLITKKTLPKLFYWGLGIVFFFLAPTTNAGSLSPYTTKELEQLEREFIQLINQSDSVERNPLASQYINSIGKKLAHYGRIKTPYFFIVKSKEINAFAGPGGYIGINTQLILTSSNESELAAVMAHEIAHVRLHHLYSIIEHQKQMRVPLLASILASAALGVLNPTVGMGAMMASVSGFSQDNINFTRSKEKEADRIGIDMLIKAGFNPQGMAAFFNKMQENSRYYYTANIPAILRTHPLDADRIAEAENRTSRLPKKHYTDSLDYALFKELIRVSVASNNKQILDYYEHHCHKKNPATACQYGYVLALLNNNNFQKAAEKLNPLLLQDNSNLNFQIAMAQAELGLSQYQSALSRLAELQNNFPDNYAALMAYAQGLLTANQPQKATAVLLKGSRQYKEDLPLCRELARAQAESHQKSYAYFTQAQCLLLEGQKRGAIAQLKVAQKLAKRDAYLSARISAKIDEIKFMVENLEHHHHHH | failed
14 | MNESERKIVEEFQKETGINFKNEELLFRALCHSSYANEQNQAGRKDVESNEKLEFLGDAVLELFVCEILYKKYPEAEVGDLARVKSAAASEEVLAMVSRKMNLGKFLFLGKGEEKTGGRDRDSILADAFEALLAAIYLDQGYEKIKELFEQEFEFYIEKIMKGEMLFDYKTALQEIVQSEHKVPPEYILVRTEKNDGDRIFVVEVRVNGKTIATGKGRTKKEAEKEAARIAYEKLLKERS | not failed
15 | MPVFRRHASQNCASIPPMMLFKRPDTETLYFALVNKDPAYEGVAYVCVTSTKIFCRFTCTARKPKIENCRFRETITECLEAGFRPCKRCKPMLSYGTPDGTVTALLTALENEPARRWREEDVVALGHDPSTVRRSFKRRFGMSFLEIARLRRVGDAAESLASGEAVIGAQIDAGYESGSGFRSAINQLFGTSPAAMKGRGFLKGDWIDTPIGPMLAVADDHALHLLEFADRPALPAELKRLKARTGADMVLGRTAVTGQIAAELAAYFAGRSGSFETRLAGHGTPFERDVWRNLREIPAGEIVSYSSLATAMERPTAVRAVARANGANQLAIVVPCHRVLGADGSLTGYGGGLWRKKWLIEHERRMARGQMLGMPLASLEHHHHHH | failed
16 | RSRIDTALNRGRCGLWDWDLSRGRIFWSQSMFTILGLESRNDLLTFGEVNALVKGEDIDLFAIADELMAGRVDHIDHSFQMRHAHGHWIWLRMRCELTQEAGATEKHLIGIAVDITEQKSLAERSVEADLRLRDAIETIPEAFVLWDAENRLVLCNSHFQRL | failed
17 | MAESTIITGQFVRISQVPASLGERILARIIDYFLLFIYILATSYILGKLNIHAFSGSTFFLLFLFIYLPVLCYSLLCEVFNQGQSAGKKLMNIRVVKADGTTPSLSAYLLRWLLYGIDVTITGGLGVLVILLTKNSQRLGDLAAGTMVIKEKNYRKIQVSLDEFDYLTKGYHPSFPSAADLSLEQINVISKALELHHKDRTRHIAQLAPKVRALLSVDQTNINDEKFLQTVVRDYQYYALEEI | failed
18 | MAVLPPDPVFSLRSPDMGAVNSLCFQESDRLLAGTIKGSVFLWDLQTNRSALHFEVGSDPITSLHHTPDRLVTQEKGGTITMFSIGGSSYVKERSIPGNHLGFCRSALHTNTSKTNEQLLFYPCEESSIGVLHVTDAAAPTQILVPDDPQLPKLGSVTCFKPFECASQLFLLAGYESGHFLTWDISSSVILDVMELAQDATSVDYDPVTNRGIVGGPTDKLISFSYQRSSMQMQLGSELCIKNPGVNGVRIRPDQKVFASAGWDGRIRIFSWKSLRPLAVLTQHKNGGVMDLAFSSQQVAMWHAPIMAAAGMDGQISLWDLYN | failed
19 | METTDHSTPQCGSASAGGQKTVGKDDYLLIEAVNKGDADRVQQLLEQGADANVCEESGGWTPLHNAVQSGRVDIVNLLLRYGADPHRRKKNGATPFIVAGICGDVSLLQIFLSRGANINERDMYGFTAFMEAAEYGNVEALKFLFAEGADVNLRRETTEDRRRLKQGGATALMSAAENGHPEVVRILLDEMKAEADARDNMGRNALIRSLLNRDCENVEIHVEEITSVLIQYGADINVRGEGEKTPLISAVKRKHTGLVQMLLSQEGIKVNDRDSEGKTALQIAVELKLKEIVRLLLEKGADTKCGDLVWIAKRNYDHGLVKLLLSYEANHDTNPPAKDWLPHSARWGEALERLHSVSRPMTGKLKIFMNDDYKIASTSEGGIYLGIYDNREVAVKVFCENSSRGRKEVSCLRDCGDHSNLLTFYGSEEHKGSLYVCVSLCESTLEKFLNVPREEPMEKGEDKFALSVLLSIFKGVQKLHMHGYSHQNLQPPNILIDSEKAVRLADFDESIQWMRESQTVQRDLEDLGRLVLYVVNKGEIPFETLKGQNDEELLTIAPNEETKDLVHCLFSPGENVKNCLMDLLGHPFFWTWENRYRTLRDVGNESDIKVRNNKSKLLKLLQPQTHAPSRSFDRWTSKIDKRVMSDMNGFYKSRKGYRDTVGDLLKFIRNIGEHINEEKNRQMKEILGDPSRYFQETFPDLVIYIYKKLKETEFRKHFPQPPPSLSVPEAAGPGGVQS | failed
